Measurements taken from patent US20140141450A1.
Each block holds one substance with its values, some of them ahead of it.

Experiments:
[1] = target: Peptide sequence V: Bz-…(mPeg2)(KLCBiot)-amide; assay: ECL bead immunoassay; uncleaved peptide sequence V on streptavidin beads, FXa 0.00 ng/mL, 10 minute incubation
[2] = target: Peptide sequence V: Bz-…(mPeg2)(KLCBiot)-amide; assay: ECL bead immunoassay; uncleaved peptide sequence V on streptavidin beads, FXa 0.00 ng/mL, 20 minute incubation
NH2-…-TAG (SEQ ID NO:5) [3] = assay: ECL capture assay; uncleaved NH2-…-TAG at 5.0 µg/mL, FXa 0.00 ng/mL
NH2-…-TAG (SEQ ID NO:5) [4] = assay: ECL capture assay; uncleaved NH2-…-TAG at 1.25 µg/mL, FXa 0.00 ng/mL
[5] = target: Peptide sequence VII: NH2-…-TAG Plus; assay: competitive ECL immunoassay; anti-FLAG M1 beads with peptide sequence VII-TAG Plus, uncleaved peptide sequence VI present, Xa 0.00 ng/mL
NH2-…-TAG (SEQ ID NO:5) [6] = assay: ECL capture assay; uncleaved NH2-…-TAG at 2.5 µg/mL, FXa 0.00 ng/mL
[7] = tested on: T1, Peptide probe sequence I: Biotin-IEGRGS (KBv TAG Plus) amide
T1 sequence: IEGRGSK

[8] = tested on: T2, NH2-IEGRDYKDDDDKGS-TAG (SEQ ID NO:5)
T2 sequence: IEGRDYKDDDDKGS

[9] = tested on: T3, Peptide sequence VI: NH2-IEGRDYKDDDDKGS-amide
T3 sequence: IEGRDYKDDDDKGS

[10] = tested on: T4, Peptide probe sequence II: Biotin-(mPeg2)IEGRGS (KBv TAG Plus) amide
T4 sequence: IEGRGSK

[11] = tested on: T5, Peptide sequence V: Bz-IEGRDYKDDDDKGSHHHHHH(mPeg2)(KLCBiot)-amide
T5 sequence: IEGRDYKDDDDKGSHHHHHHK

Mean Signal (ECL, background without FXa) [1]: 345 ECL signal
Mean Signal (ECL, background without FXa) [2]: 319 ECL signal
Substance: BV TAG Plus-conjugated ANTI-FLAG® M1 antibody

Mean Signal (ECL, background without FXa) (NH2-…-TAG (SEQ ID NO:5) [3]): 1770 ECL signal
Mean Signal (ECL, background without FXa) (NH2-…-TAG (SEQ ID NO:5) [4]): 593 ECL signal
Mean Signal (ECL, without FXa) [5]: 91800 ECL signal
Mean Signal (ECL, background without FXa) (NH2-…-TAG (SEQ ID NO:5) [6]): 856 ECL signal
Substance: Biotin-conjugated ANTI-FLAG® M1 antibody

Substance: factor Xa (FXa)
% Signal Decrease, FXa 78.1 ng/mL [7]: -3%
% Signal Decrease, FXa 156 ng/mL [7]: -3%
% Signal Decrease, FXa 313 ng/mL [7]: -9%
% Signal Decrease, FXa 625 ng/mL [7]: -15%
% Signal Decrease, FXa 1250 ng/mL [7]: -31%
% Signal Decrease, FXa 2500 ng/mL [7]: -53%
% Signal Decrease, FXa 5000 ng/mL [7]: -76%
Mean Signal (ECL), FXa 78.1 ng/mL [7]: 414000 ECL signal
Mean Signal (ECL), FXa 156 ng/mL [7]: 413000 ECL signal
Mean Signal (ECL), FXa 313 ng/mL [7]: 388000 ECL signal
Mean Signal (ECL), FXa 625 ng/mL [7]: 363000 ECL signal
Mean Signal (ECL), FXa 1250 ng/mL [7]: 296000 ECL signal
Mean Signal (ECL), FXa 2500 ng/mL [7]: 202000 ECL signal
Mean Signal (ECL), FXa 5000 ng/mL [7]: 104000 ECL signal
Mean Signal (ECL, capture on anti-FLAG M1 beads), FXa 1.37 ng/mL, peptide 1.25 µg/mL [8]: 1140 ECL signal
Mean Signal (ECL, capture on anti-FLAG M1 beads), FXa 1.37 ng/mL, peptide 2.5 µg/mL [8]: 1390 ECL signal
Mean Signal (ECL, capture on anti-FLAG M1 beads), FXa 1.37 ng/mL, peptide 5.0 µg/mL [8]: 3720 ECL signal
Mean Signal (ECL, capture on anti-FLAG M1 beads), FXa 4.12 ng/mL, peptide 1.25 µg/mL [8]: 2170 ECL signal
Mean Signal (ECL, capture on anti-FLAG M1 beads), FXa 4.12 ng/mL, peptide 2.5 µg/mL [8]: 3830 ECL signal
Mean Signal (ECL, capture on anti-FLAG M1 beads), FXa 4.12 ng/mL, peptide 5.0 µg/mL [8]: 6360 ECL signal
Mean Signal (ECL, capture on anti-FLAG M1 beads), FXa 12.3 ng/mL, peptide 1.25 µg/mL [8]: 4440 ECL signal
Mean Signal (ECL, capture on anti-FLAG M1 beads), FXa 12.3 ng/mL, peptide 2.5 µg/mL [8]: 7700 ECL signal
Mean Signal (ECL, capture on anti-FLAG M1 beads), FXa 12.3 ng/mL, peptide 5.0 µg/mL [8]: 14900 ECL signal
Mean Signal (ECL, capture on anti-FLAG M1 beads), FXa 37.0 ng/mL, peptide 1.25 µg/mL [8]: 10700 ECL signal
Mean Signal (ECL, capture on anti-FLAG M1 beads), FXa 37.0 ng/mL, peptide 2.5 µg/mL [8]: 20100 ECL signal
Mean Signal (ECL, capture on anti-FLAG M1 beads), FXa 37.0 ng/mL, peptide 5.0 µg/mL [8]: 32300 ECL signal
Mean Signal (ECL, capture on anti-FLAG M1 beads), FXa 111 ng/mL, peptide 1.25 µg/mL [8]: 20500 ECL signal
Mean Signal (ECL, capture on anti-FLAG M1 beads), FXa 111 ng/mL, peptide 2.5 µg/mL [8]: 41800 ECL signal
Mean Signal (ECL, capture on anti-FLAG M1 beads), FXa 111 ng/mL, peptide 5.0 µg/mL [8]: 62100 ECL signal
Mean Signal (ECL, capture on anti-FLAG M1 beads), FXa 333 ng/mL, peptide 1.25 µg/mL [8]: 52800 ECL signal
Mean Signal (ECL, capture on anti-FLAG M1 beads), FXa 333 ng/mL, peptide 2.5 µg/mL [8]: 62700 ECL signal
Mean Signal (ECL, capture on anti-FLAG M1 beads), FXa 333 ng/mL, peptide 5.0 µg/mL [8]: 78700 ECL signal
Mean Signal (ECL, capture on anti-FLAG M1 beads), FXa 1000 ng/mL, peptide 1.25 µg/mL [8]: 69000 ECL signal
Mean Signal (ECL, capture on anti-FLAG M1 beads), FXa 1000 ng/mL, peptide 2.5 µg/mL [8]: 78200 ECL signal
Mean Signal (ECL, capture on anti-FLAG M1 beads), FXa 1000 ng/mL, peptide 5.0 µg/mL [8]: 86900 ECL signal
Signal/Background, FXa 1.37 ng/mL, peptide 1.25 µg/mL [8]: 1.9
Signal/Background, FXa 1.37 ng/mL, peptide 2.5 µg/mL [8]: 1.6
Signal/Background, FXa 1.37 ng/mL, peptide 5.0 µg/mL [8]: 2.1
Signal/Background, FXa 4.12 ng/mL, peptide 1.25 µg/mL [8]: 3.7
Signal/Background, FXa 4.12 ng/mL, peptide 2.5 µg/mL [8]: 4.5
Signal/Background, FXa 4.12 ng/mL, peptide 5.0 µg/mL [8]: 3.6
Signal/Background, FXa 12.3 ng/mL, peptide 1.25 µg/mL [8]: 7.5
Signal/Background, FXa 12.3 ng/mL, peptide 2.5 µg/mL [8]: 9
Signal/Background, FXa 12.3 ng/mL, peptide 5.0 µg/mL [8]: 8.4
Signal/Background, FXa 37.0 ng/mL, peptide 1.25 µg/mL [8]: 18
Signal/Background, FXa 37.0 ng/mL, peptide 2.5 µg/mL [8]: 24
Signal/Background, FXa 37.0 ng/mL, peptide 5.0 µg/mL [8]: 18
Signal/Background, FXa 111 ng/mL, peptide 1.25 µg/mL [8]: 35
Signal/Background, FXa 111 ng/mL, peptide 2.5 µg/mL [8]: 49
Signal/Background, FXa 111 ng/mL, peptide 5.0 µg/mL [8]: 35
Signal/Background, FXa 333 ng/mL, peptide 1.25 µg/mL [8]: 89
Signal/Background, FXa 333 ng/mL, peptide 2.5 µg/mL [8]: 73
Signal/Background, FXa 333 ng/mL, peptide 5.0 µg/mL [8]: 45
Signal/Background, FXa 1000 ng/mL, peptide 1.25 µg/mL [8]: 116
Signal/Background, FXa 1000 ng/mL, peptide 2.5 µg/mL [8]: 91
Signal/Background, FXa 1000 ng/mL, peptide 5.0 µg/mL [8]: 49
% Signal Decrease, Xa 0.686 ng/mL [9]: -8.5%
% Signal Decrease, Xa 2.06 ng/mL [9]: -22%
% Signal Decrease, Xa 6.17 ng/mL [9]: -42%
% Signal Decrease, Xa 18.5 ng/mL [9]: -60%
% Signal Decrease, Xa 55.6 ng/mL [9]: -75%
% Signal Decrease, Xa 167 ng/mL [9]: -84%
% Signal Decrease, Xa 500 ng/mL [9]: -89%
Mean Signal (ECL, competitive format), Xa 0.686 ng/mL [9]: 84000 ECL signal
Mean Signal (ECL, competitive format), Xa 2.06 ng/mL [9]: 71900 ECL signal
Mean Signal (ECL, competitive format), Xa 6.17 ng/mL [9]: 53000 ECL signal
Mean Signal (ECL, competitive format), Xa 18.5 ng/mL [9]: 36400 ECL signal
Mean Signal (ECL, competitive format), Xa 55.6 ng/mL [9]: 22500 ECL signal
Mean Signal (ECL, competitive format), Xa 167 ng/mL [9]: 14300 ECL signal
Mean Signal (ECL, competitive format), Xa 500 ng/mL [9]: 9830 ECL signal
% Signal Decrease, FXa 78.1 ng/mL [10]: 0%
% Signal Decrease, FXa 156 ng/mL [10]: -4%
% Signal Decrease, FXa 313 ng/mL [10]: -11%
% Signal Decrease, FXa 625 ng/mL [10]: -10%
% Signal Decrease, FXa 1250 ng/mL [10]: -24%
% Signal Decrease, FXa 2500 ng/mL [10]: -39%
% Signal Decrease, FXa 5000 ng/mL [10]: -66%
Mean Signal (ECL), FXa 78.1 ng/mL [10]: 340000 ECL signal
Mean Signal (ECL), FXa 156 ng/mL [10]: 326000 ECL signal
Mean Signal (ECL), FXa 313 ng/mL [10]: 303000 ECL signal
Mean Signal (ECL), FXa 625 ng/mL [10]: 306000 ECL signal
Mean Signal (ECL), FXa 1250 ng/mL [10]: 257000 ECL signal
Mean Signal (ECL), FXa 2500 ng/mL [10]: 209000 ECL signal
Mean Signal (ECL), FXa 5000 ng/mL [10]: 117000 ECL signal
Mean Signal (ECL, TAG Plus anti-FLAG M1 detector), FXa 0.686 ng/mL, 10 minute incubation [11]: 856 ECL signal
Mean Signal (ECL, TAG Plus anti-FLAG M1 detector), FXa 0.686 ng/mL, 20 minute incubation [11]: 1050 ECL signal
Mean Signal (ECL, TAG Plus anti-FLAG M1 detector), FXa 2.06 ng/mL, 10 minute incubation [11]: 1430 ECL signal
Mean Signal (ECL, TAG Plus anti-FLAG M1 detector), FXa 2.06 ng/mL, 20 minute incubation [11]: 2110 ECL signal
Mean Signal (ECL, TAG Plus anti-FLAG M1 detector), FXa 6.17 ng/mL, 10 minute incubation [11]: 3100 ECL signal
Mean Signal (ECL, TAG Plus anti-FLAG M1 detector), FXa 6.17 ng/mL, 20 minute incubation [11]: 6040 ECL signal
Mean Signal (ECL, TAG Plus anti-FLAG M1 detector), FXa 18.5 ng/mL, 10 minute incubation [11]: 8790 ECL signal
Mean Signal (ECL, TAG Plus anti-FLAG M1 detector), FXa 18.5 ng/mL, 20 minute incubation [11]: 20700 ECL signal
Mean Signal (ECL, TAG Plus anti-FLAG M1 detector), FXa 55.6 ng/mL, 10 minute incubation [11]: 33700 ECL signal
Mean Signal (ECL, TAG Plus anti-FLAG M1 detector), FXa 55.6 ng/mL, 20 minute incubation [11]: 74000 ECL signal
Mean Signal (ECL, TAG Plus anti-FLAG M1 detector), FXa 167 ng/mL, 10 minute incubation [11]: 113000 ECL signal
Mean Signal (ECL, TAG Plus anti-FLAG M1 detector), FXa 167 ng/mL, 20 minute incubation [11]: 225000 ECL signal
Mean Signal (ECL, TAG Plus anti-FLAG M1 detector), FXa 500 ng/mL, 10 minute incubation [11]: 298000 ECL signal
Mean Signal (ECL, TAG Plus anti-FLAG M1 detector), FXa 500 ng/mL, 20 minute incubation [11]: 498000 ECL signal
Signal/Background, FXa 0.686 ng/mL, 10 minute incubation [11]: 2.5
Signal/Background, FXa 0.686 ng/mL, 20 minute incubation [11]: 3.3
Signal/Background, FXa 2.06 ng/mL, 10 minute incubation [11]: 4.1
Signal/Background, FXa 2.06 ng/mL, 20 minute incubation [11]: 6.6
Signal/Background, FXa 6.17 ng/mL, 10 minute incubation [11]: 9
Signal/Background, FXa 6.17 ng/mL, 20 minute incubation [11]: 19
Signal/Background, FXa 18.5 ng/mL, 10 minute incubation [11]: 25
Signal/Background, FXa 18.5 ng/mL, 20 minute incubation [11]: 65
Signal/Background, FXa 55.6 ng/mL, 10 minute incubation [11]: 98
Signal/Background, FXa 55.6 ng/mL, 20 minute incubation [11]: 232
Signal/Background, FXa 167 ng/mL, 10 minute incubation [11]: 328
Signal/Background, FXa 167 ng/mL, 20 minute incubation [11]: 706
Signal/Background, FXa 500 ng/mL, 10 minute incubation [11]: 864
Signal/Background, FXa 500 ng/mL, 20 minute incubation [11]: 1560
